Results taken from patent US10138280B2, “Polypeptides targeting glycosylated MUC2 proteins, methods of synthesis, their nucleic acids and uses thereof” (INSTITUT PASTEUR, priority 2011, dated 2018).

Assays:
rabbit colonic mucus = assay: Mucus staining on fixed tissues, rabbit colon
Procedure: (§1) FIGS. 8A-8D. (FIG. 8A) Cell toxicity of Cy5-MUB70 tested on HT-29-MTX and Hela epithelial cells. Cell survival was assessed using Sytoxgreen dye on cultures exposed to 1 μg/mL Cy5-MUB70 from 0 to 10 h, as indicated. NS indicates P>0.05 (Student's T-test). (FIG. 8B) Rabbit colonic and ileal mucus staining on fixed tissues (PFA 4%), using Cy5-MUB70 (1 μg/mL) (blue). Actin is stained in red (Phall.-RRX). Bar is 50 μm. (FIG. 8C) Human ex vivo colon sample was incubated for 2 h with 1 μg/mL Cy5-MUB70 in a serum-free media. Resulting fluorescent staining was assessed using a two-photons microscope (see Methods). Z-projection, performed using ImageJ software, allows 3D localization of Cy5-MUB70 fluorescence signal. Bar is 100 μm. Colon scheme: firmly (f) and loosely (I) attached colonic mucus layers are represented at the surface of the epithelium (e). (FIG. 8D) Kinetics of colonic mucus with Cy5-MUB70. […] Human tissue autofluorescence is detected in the same red channel as Cy5.
FIGS. 9A-9B. (FIG. 9A) Co-localization of Muc2 (green) and Cy5-MUB (blue) performed by immunofluorescent detection on human mucus extract collected on ex vivo tissues using an epifluorescent microscope. Bar is 50 μm. (FIG. 9B) Co-localization of Muc2 (green) and Cy5-MUB (blue) observed on fixed (PFA 4%) rabbit colon samples. Actin is stained in red (Phall.RRX). Observations are performed using a confocal microscope. […]

[1] = biological target: T1, mucus of human colonic mucinous carcinomas (Muc2) (Homo sapiens, UniProt Q02817); assay: Fluorescent staining of human colonic mucinous carcinoma samples
T1 construct: five different samples collected from patients diagnosed with colonic mucinous carcinomas; from tissue; host or cells: human colonic mucinous carcinoma samples, fixed, paraffin embedded
Procedure: FIGS. 24A-24B. Comparative human colonic mucus staining using MUB70-Cy5 on healthy tissues and mucinous carcinomas (Coic et al, JBC, 2012 (41)). Fluorescent staining of human colonic mucus was performed by the addition of 1 μg/mL of the corresponding Cy5-conjugated peptides with Phalloidin-RRX (1:100) on formol fixed, paraffin embedded samples. Image acquisition was performed using a fluorescent confocal microscope (see Methods).
Ex vivo human colon samples were obtained from Dr. E. Labruyère (Institut Pasteur) and tissue processing was performed as described previously and stored in serum free RMPI media (surgical procedure is described herein). Human mucinous carcinoma formamide fixed samples were obtained from Dr. T. Lazure (Hôpitaux Universitaires Paris-Sud, Kremlin-Bicêtre) and Pr. I. Sobhani (Hôpital Henri Mondor, Créteil). Rabbit colon and ileum samples were collected on naïve New Zealand white rabbits weighting 2.5-3 kg and fixed in PFA 3%. […]
As colonic mucinous carcinomas are characterized by abnormal overproduction of Muc2 in the colon mucosa (40), the inventors have hypothesized that Cy5-MUB70 could be used as a novel fluorescent marker for the diagnosis of this pathology. […] As shown previously on a healthy colon (FIG. 3B), the luminal mucus secreted fraction is detected by Cy5-MUB70 (FIG. 24A, top panel). […]

rabbit ileal mucus = assay: Mucus staining on fixed tissues, rabbit ileum; conditions: fixed tissue, 1 μg/mL
Procedure: as §1
FIGS. 11A-11C. Mucus staining using Cy5-MUB70 on fixed tissues. (FIG. 11A) Guinea pig colon, (FIG. 11B) rabbit ileum and (FIG. 11C) mouse colon were fixed in PFA 4%. Immunofluorescent staining was performed using Cy5-MUB70 (1 μg/mL) (blue). Actin is stained in red (Phall.-RRX), Muc2 is stained in green (α-Muc2). Observations were performed using a confocal microscope. Bar is 50 μm. […]

colocalization with Muc2 in colonic mucinous carcinomas ([1]; mucus accumulation within the colonic mucosa, associated with tumor cells): colocalizes with the presence of Muc2
B1: Cy5-MUB70: Cy5-labelled MUB70 polypeptide, labelled via Cy5 maleimide on N-terminal cysteine (conjugate)
peptide: CVHVQYIDGETDQMLRQDDLDGYTDETIPYSTAEGIKKFEGDGYELFKDNFPAGEKFDNDDTNDQFYTVIF
colocalization with Muc2 (rabbit colonic mucus; fixed rabbit colon samples): colocalization detection of Muc2 and Cy5-MUB70
colonic mucus staining (rabbit colonic mucus; rabbit colon, fixed tissue, 1 μg/mL): confirmed
staining of colonic mucinous carcinoma samples ([1]; five samples from patients, 1 μg/mL): specific staining was observed within the mucus accumulation areas
ileal mucus staining (rabbit ileal mucus): negative results
